One block for each binder: values may come before it.
Experiments:
CD33 = CD33 (UniProt P20138 18-364, limits assumed); test: cell-based or functional assay
CD70 = target: T1, CD70 (UniProt P32970 1-193, limits assumed); test: cell-based or functional assay
T1 sequence (looked up): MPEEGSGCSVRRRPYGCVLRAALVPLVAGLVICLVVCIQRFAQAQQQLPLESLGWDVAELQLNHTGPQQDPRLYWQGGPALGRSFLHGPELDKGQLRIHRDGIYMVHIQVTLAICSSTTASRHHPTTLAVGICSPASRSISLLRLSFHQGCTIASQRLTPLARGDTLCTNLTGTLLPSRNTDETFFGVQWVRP

human B7-H3 variant 1 = target: T2, human B7-H3 variant 1 (human, UniProt Q5ZPR3 27-534); test: flow cytometry: 10 µg/mL M30 on CCRF-CEM clones transfected with pcDNA3.1-B7-H3, detected with fluorescein-conjugated goat anti-mouse IgG
T2 construct: also called 4Ig-B7-H3
T2 sequence: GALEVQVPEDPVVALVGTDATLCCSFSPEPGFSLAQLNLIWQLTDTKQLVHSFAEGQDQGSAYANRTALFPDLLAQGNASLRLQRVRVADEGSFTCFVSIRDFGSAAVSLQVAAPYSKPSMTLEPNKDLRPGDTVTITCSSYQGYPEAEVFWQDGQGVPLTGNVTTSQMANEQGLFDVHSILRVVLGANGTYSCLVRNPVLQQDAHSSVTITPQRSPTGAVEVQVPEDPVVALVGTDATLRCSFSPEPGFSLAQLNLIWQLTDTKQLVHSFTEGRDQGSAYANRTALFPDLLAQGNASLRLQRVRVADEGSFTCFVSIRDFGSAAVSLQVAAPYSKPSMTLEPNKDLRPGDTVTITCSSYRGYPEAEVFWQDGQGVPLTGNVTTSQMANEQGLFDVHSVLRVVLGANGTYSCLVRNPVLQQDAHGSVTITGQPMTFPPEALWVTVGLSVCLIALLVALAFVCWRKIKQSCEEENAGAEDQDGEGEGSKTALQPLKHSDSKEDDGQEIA
Procedure: Flow cytometry was used for confirming B7-H3 expression in each recovered clone. Specifically, each recovered clone was washed twice with PBS containing 5% FBS, thereafter suspended by the addition of PBS containing 5% FBS and 10 μg/mL M30, and left standing at 4° C. for 30 minutes. The clone was washed twice with PBS containing 5% FBS, thereafter suspended by the addition of Fluorescein-conjugated goat IgG fraction to mouse IgG (Whole Molecule) (455493, manufactured by ICN Pharmaceuticals, Inc.) diluted 1000-fold with PBS containing 5% FBS, and left standing at 4° C. for 30 minutes. The clone was washed twice with PBS containing 5% FBS, thereafter resuspended in PBS containing 5% FBS, and detected by using a flow cytometer (FC500: Beckman Coulter, Inc.).

CD33, sequence (P20138 18-364 limits assumed): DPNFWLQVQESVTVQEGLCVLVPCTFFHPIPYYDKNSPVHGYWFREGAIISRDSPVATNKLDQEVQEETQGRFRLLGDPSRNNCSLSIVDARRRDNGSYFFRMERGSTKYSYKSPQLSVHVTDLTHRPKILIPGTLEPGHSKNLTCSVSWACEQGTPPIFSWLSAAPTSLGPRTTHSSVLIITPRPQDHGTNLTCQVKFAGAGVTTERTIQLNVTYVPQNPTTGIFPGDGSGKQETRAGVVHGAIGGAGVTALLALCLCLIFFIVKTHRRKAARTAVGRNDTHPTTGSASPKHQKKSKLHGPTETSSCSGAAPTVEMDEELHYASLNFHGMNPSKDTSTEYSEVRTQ

B1: Antibody-drug conjugate (9) (antibody, V domains shown)
VH: EVQLVQSGAEVKKPGSSVKVSCKASGYTITDSNIHWVRQAPGQSLEWIGYIYPYNGGTDYNQKFKNRATLTVDNPTNTAYMELSSLRSEDTAFYYCVNGNPWLAYWGQGTLVTVSS
VL: DIQLTQSPSTLSASVGDRVTITCRASQSLDNYGIRFLTWFQQKPGKAPKLLMYAASNQGSGVPSRFSGSGSGTEFTLTISSLQPDDFATYYCQQTKEVPWSFGQGTKVEVKR
modifications: drug-linker 6-maleimidohexanoyl-GGFG-NH-(CH2)3-C(=O)-exatecan (compound of Process 3 of Example 2) on cysteines of the reduced hinge disulfide bonds; average 3.7 per antibody molecule; positions not given
IC50, cytotoxic activity against the HL-60 cells (CD33): < 0.1 nM

B2: Antibody-drug conjugate (25) (antibody, V domains shown)
VH: EVQLVQSGAEVKKPGSSVKVSCKASGYTITDSNIHWVRQAPGQSLEWIGYIYPYNGGTDYNQKFKNRATLTVDNPTNTAYMELSSLRSEDTAFYYCVNGNPWLAYWGQGTLVTVSS
VL: DIQLTQSPSTLSASVGDRVTITCRASQSLDNYGIRFLTWFQQKPGKAPKLLMYAASNQGSGVPSRFSGSGSGTEFTLTISSLQPDDFATYYCQQTKEVPWSFGQGTKVEVKR
modifications: drug-linker 3-maleimidopropanoyl-NH-(CH2CH2O)2-CH2CH2-C(=O)-GGFG-NH-(CH2)3-C(=O)-exatecan (compound of Process 1 of Example 14) on cysteines of the reduced hinge disulfide bonds; average 7.3 per antibody molecule; positions not given
IC50, cytotoxic activity against the NOMO-1 cells (CD33): < 0.1 nM

B3: Antibody-drug conjugate (10) (antibody, V domains shown)
VH: QVQLVQSGAEVKKPGASVKVSCKASGYTFTNYGMNWVRQAPGQGLKWMGWINTYTGEPTYADAFKGRVTMTRDTSISTAYMELSRLRSDDTAVYYCARDYGDYGMDYWGQGTTVTVSS
VL: DIVMTQSPDSLAVSLGERATINCRASKSVSTSGYSFMHWYQQKPGQPPKLLIYLASNLESGVPDRFSGSGSGTDFTLTISSLQAEDVAVYYCQHSREVPWTFGQGTKVEIKR
modifications: drug-linker 6-maleimidohexanoyl-GGFG-NH-(CH2)3-C(=O)-exatecan (compound of Process 3 of Example 2) on cysteines of the reduced hinge disulfide bonds; average 3.2 per antibody molecule; positions not given
IC50, cytotoxic activity against the U251 cells (CD70): < 1 nM

B4: Antibody-drug conjugate (11) (antibody, V domains shown)
VH: QVQLVQSGAEVKKPGASVKVSCKASGYTFTNYGMNWVRQAPGQGLKWMGWINTYTGEPTYADAFKGRVTMTRDTSISTAYMELSRLRSDDTAVYYCARDYGDYGMDYWGQGTTVTVSS
VL: DIVMTQSPDSLAVSLGERATINCRASKSVSTSGYSFMHWYQQKPGQPPKLLIYLASNLESGVPDRFSGSGSGTDFTLTISSLQAEDVAVYYCQHSREVPWTFGQGTKVEIKR
modifications: drug-linker 6-maleimidohexanoyl-GGFG-NH-(CH2)3-C(=O)-exatecan (compound of Process 3 of Example 2) on cysteines of the reduced hinge disulfide bonds; average 3.6 per antibody molecule; positions not given
IC50, cytotoxic activity against the U251 cells (CD70): < 1 nM

binding result (human B7-H3 variant 1): binds
B5: M30 antibody (antibody, mouse IgG2a, kappa, V domains shown)
VH: EVQLQQSGPELVKPGASVKMSCKASGYTFTNYVMHWVKQKPGQGLEWIGYINPYNDDVKYNEKFKGKATQTSDKSSSTAYMELSSLTSEDSAVYYCARWGYYGSPLYYFDYWGQGTTLTVSS
VL: QIVLSQSPTILSASPGEKVTMTCRASSRLIYMHWYQQKPGSSPKPWIYATSNLASGVPARFSGSGSGTSYSLTISRVEAEDAATYYCQQWNSNPPTFGTGTKLELKR
notes: Mouse monoclonal antibody produced by the B7-H3 hybridoma M30

Source: patent publication US20150297748A1 (Daiichi Sankyo, published 2015)
